Article PMC3493965 (The Journal of Biological Chemistry, 2012)

Target: TaCDC48-L745W (W466F, W541Y, L745W) (T. acidophilum, UniProt O05209 1-745, W466F | W541Y | L745W)
Experiment: tryptophan fluorescence shift

Sequence of TaCDC48-L745W (W466F, W541Y, L745W) (O05209 whole entry W466F/W541Y/L745W): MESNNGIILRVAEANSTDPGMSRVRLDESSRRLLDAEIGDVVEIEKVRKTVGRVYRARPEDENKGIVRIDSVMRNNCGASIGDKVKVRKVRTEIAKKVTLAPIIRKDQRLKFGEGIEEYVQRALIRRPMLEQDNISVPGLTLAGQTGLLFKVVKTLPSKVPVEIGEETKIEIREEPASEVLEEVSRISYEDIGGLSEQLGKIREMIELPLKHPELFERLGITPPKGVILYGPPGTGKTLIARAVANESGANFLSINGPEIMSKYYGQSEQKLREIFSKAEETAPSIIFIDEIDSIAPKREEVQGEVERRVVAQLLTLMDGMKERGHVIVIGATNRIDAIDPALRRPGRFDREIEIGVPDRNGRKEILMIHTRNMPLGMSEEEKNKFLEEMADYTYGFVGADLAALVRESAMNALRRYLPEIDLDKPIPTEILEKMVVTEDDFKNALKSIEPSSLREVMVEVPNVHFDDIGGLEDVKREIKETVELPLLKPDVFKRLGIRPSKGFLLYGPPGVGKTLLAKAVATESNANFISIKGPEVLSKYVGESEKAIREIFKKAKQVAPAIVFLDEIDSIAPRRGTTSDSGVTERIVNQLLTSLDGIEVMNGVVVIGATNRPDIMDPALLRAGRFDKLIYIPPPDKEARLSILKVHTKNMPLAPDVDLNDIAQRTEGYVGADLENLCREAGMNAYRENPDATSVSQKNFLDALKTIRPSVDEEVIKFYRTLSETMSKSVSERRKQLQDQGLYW

B1: Thermoplasma acidophilum 20S proteasome core particle, recombinant (complex, T. acidophilum)
chain 1: MQQGQMAYDRAITVFSPDGRLFQVEYAREAVKKGSTALGMKFANGVLLISDKKVRSRLIEQNSIEKIQLIDDYVAAVTSGLVADARVLVDFARISAQQEKVTYGSLVNIENLVKRVADQMQQYTQYGGVRPYGVSLIFAGIDQIGPRLFDCDPAGTINEYKATAIGSGKDAVVSFLEREYKENLPEKEAVTLGIKALKSSLEEGEELKAPEIASITVGNKYRIYDQEEVKKFL
chain 2: TTTVGITLKDAVIMATERRVTMENFIMHKNGKKLFQIDTYTGMTIAGLVGDAQVLVRYMKAELELYRLQRRVNMPIEAVATLLSNMLNQVKYMPYMVQLLVGGIDTAPHVFSIDAAGGSVEDIYASTGSGSPFVYGVLESQYSEKMTVDEGVDLVIRAISAAKQRDSASGGMIDVAVITRKDGYVQLPTDQIESRIRKLGLIL
binding result: binds
